In experiment [1] the target is RPM-1 chimeric HMPV/RSV F protein (HMPV F with the grafted RSV site A/II palivizumab/motavizumab epitope) (human metapneumovirus, B2 strain). Kind of experiment: SEC; gel filtration of complexes made of RPM-1 and Fab.
For experiment [2] the target is unchanged. Kind of experiment: SPR; BiOptix 404pi; F proteins captured on NiHC1000m chip through their C-terminal His tag to 120 RU; Fab injected at 300 to 0.14 nM, 100 ul/min; 10 mM HEPES pH 7.2, 150 mM NaCl, 0.005% Tween 20, 50 uM EDTA; simple Langmuir model.

B1: motavizumab Fab (affinity-matured variant of palivizumab, anti-RSV F site II/A) (Fab, V domains shown)
VH: QVTLRESGPALVKPTQTLTLTCTFSGFSLSTAGMSVGWIRQPPGKALEWLADIWWDDKKHYNPSLKDRLTISKDTSKNQVVLKVTNMDPADTATYYCARDMIFNFYFDVWGQGTTVTVSS
VL: DIQMTQSPSTLSASVGDRVTITCSASSRVGYMHWYQQKPGKAPKLLIYDTSKLASGVPSRFSGSGSGTEFTLTISSLQPDDFATYYCFQGSGYPFTFGGGTKVEIK
As to B1, in experiment [1], the stoichiometry N (Fabs per F trimer) amounted to 3. In experiment [2], this molecule yielded a Kd of 7.11 pM, a koff of 1.8e-05 s⁻¹, a kon of 2.41e+06 M⁻¹ s⁻¹ and a t1/2 of 10.9 h.
